Experiments:
[1] = target: T1, Conjugate 45b (human, UniProt P0DOX5 203-448 = IgG part); test: ELISA
[2] = target: T1, Conjugate 45b; test: ELISA: conjugate coated on the plate, His-tagged receptor titrated, anti-His HRP detection

Binder	binding result [1]	binding result [2]
mouse FcγR2B/CD32b (receptor, also called murine Fcγ RIIb) THDLPKAVVKLEPPWIQVLKEDTVTLTCEGTHNPGNSSTQWFHNGRSIRSQVQASYTFKATVNDSGEYRCQMEQTRLSDPVDLGVISDWLLLQTPQLVFLEGETITLRCHSWRNKLLNRISFFHNEKSVRYHHYSSNFSIPKANHSHSGDYYCKGSLGRTLHQSKPVTITVQGPKSSR	binds	–
human Fcγ RIIb (receptor) APPKAVLKLEPQWINVLQEDSVTLTCRGTHSPESDSIQWFHNGNLIPTHTQPSYRFKANNNDSGEYTCQTGQTSLSDPVHLTVLSEWLVLQTPHLEFQEGETIVLRCHSWKDKPLVKVTFFQNGKSKKFSRSDPNFSIPQANHSHSGDYHCTGNIGYTLYSSKPVTITVQAP	binds	–
rat FcγR3A/CD16a (receptor) GLQKAVVNLDPEWVRVLEEDCVILRCQGTFSPEDNSTKWFHNKSLISHQDANYVIQSARVKDSGMYRCQTAFSALSDPVQLDVHADWLLLQTTKRLFQEGDPIRLRCHSWRNTPVFKVTYLQNGKGKKYFHRNSELSISKATHADSGSYFCRGIIGRNNISSASLQISIGDPTSPSSFLPWHQ	–	binds

Reference: patent publication US20260108618A1 (published 2026)
